Biological target: T1, CALRins5 (Type 2 mutant calreticulin) on ELF-153 MPL CALRins5 cells (human, UniProt P27797 18-417)
T1 sequence (looked up): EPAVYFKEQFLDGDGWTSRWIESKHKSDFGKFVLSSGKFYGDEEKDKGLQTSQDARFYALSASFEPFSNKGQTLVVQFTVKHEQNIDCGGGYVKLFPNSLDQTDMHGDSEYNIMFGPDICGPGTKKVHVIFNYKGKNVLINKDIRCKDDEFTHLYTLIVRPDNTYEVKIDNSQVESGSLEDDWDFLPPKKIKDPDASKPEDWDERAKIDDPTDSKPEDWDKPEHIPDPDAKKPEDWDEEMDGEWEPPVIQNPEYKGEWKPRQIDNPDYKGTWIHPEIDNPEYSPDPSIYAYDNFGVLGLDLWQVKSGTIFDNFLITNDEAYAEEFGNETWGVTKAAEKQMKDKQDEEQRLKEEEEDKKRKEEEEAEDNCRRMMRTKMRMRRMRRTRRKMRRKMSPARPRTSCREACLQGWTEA
Test: cell-based or functional assay

B1: C3CRB73, a CALRmut x CD3 bispecific antibody (bispecific antibody, human IgG1, kappa, L234A L235A)
heavy: EVQLLESGGGLVQPGGSLRLSCAVSGIDLSNNAISWVRQAPGKGLEYVGVIGNTGDTYYADSAKGRFTISRDSSKTTLYLQMNSLRAEDTAVYFCVRGPPSYSSSVKNIWGQGTLVTVSSASTKGPSVFPLAPSSKSTSGGTAALGCLVKDYFPEPVTVSWNSGALTSGVHTFPAVLQSSGLYSLSSVVTVPSSSLGTQTYICNVNHKPSNTKVDKKVEPKSCDKTHTCPPCPAPEAAGGPSVFLFPPKPKDTLMISRTPEVTCVVVSVSHEDPEVKFNWYVDGVEVHNAKTKPREEQYNSTYRVVSVLTVLHQDWLNGKEYKCKVSNKALPAPIEKTISKAKGQPREPQVYTLPPSREEMTKNQVSLSCAVKGFYPSDIAVEWESNGQPENNYKTTPPVLDSDGSFFLVSKLTVDKSRWQQGNVFSCSVMHEALHNRFTQKSLSLSPGK
light: DIQMTQSPSSVSASVGDRVTITCQSSQSVYNNNWLSWLQQKPGKAPKRLIYDASKLESGVPSRFSGSGSGTDFTLTISSVQPEDAATYYCAGGFTGNVYTFGGGTKVEIKRTVAAPSVFIFPPSDEQLKSGTASVVCLLNNFYPREAKVQWKVDNALQSGNSQESVTEQDSKDSTYSLSSTLTLSKADYEKHKVYACEVTHQGLSSPVTKSFNRGEC
chain: DIQMTQSPSSLSASVGDRVTITCRARQSIGTAIHWYQQKPGCAPKLLIKYASESISGVPSRFSGSGSGTDFTLTISSLQPEDFATYYCQQSGSWPYTFGQGTKLEIKGGGSGGSGGCPPCGGSGGEVQLVESGGGLVKPGGSLRLSCAASGFTFSRYNMNWVRQAPGKGLEWVSSISTSSNYIYYADSVKGRFTFSRDNAKNSLDLQMSGLRAEDTAIYYCTRGWGPFDYWGCGTLVTVSSEPKSSDKTHTCPPCPAPEAAGGPSVFLFPPKPKDTLMISRTPEVTCVVVSVSHEDPEVKFNWYVDGVEVHNAKTKPREEQYNSTYRVVSVLTVLHQDWLNGKEYKCKVSNKALPAPIEKTISKAKGQPREPQVYTLPPSREEMTKNQVSLWCLVKGFYPSDIAVEWESNGQPENNYKTTPPVLDSDGSFFLYSKLTVDKSRWQQGNVFSCSVMHEALHNHYTQKSLSLSPGK
For B1, the “median EC50 of ELF-153 MPL CALRins5 cells cytotoxicity using patient whole blood” value was 640 pM.
